In patent US20240343803A1 (SHANDONG SIMCERE BIOPHARMACEUTICAL, published 2024):
Changes are numbered by the printed parent chain.

T1: Fusion protein of extracellular domain of human TIGIT and mouse IgG2a Fc fragment (human TIGIT ECD-mFc) (human)
T1 construct: The entry includes the signal peptide (limits not recoverable) and the mouse IgG2a Fc
T1 chain: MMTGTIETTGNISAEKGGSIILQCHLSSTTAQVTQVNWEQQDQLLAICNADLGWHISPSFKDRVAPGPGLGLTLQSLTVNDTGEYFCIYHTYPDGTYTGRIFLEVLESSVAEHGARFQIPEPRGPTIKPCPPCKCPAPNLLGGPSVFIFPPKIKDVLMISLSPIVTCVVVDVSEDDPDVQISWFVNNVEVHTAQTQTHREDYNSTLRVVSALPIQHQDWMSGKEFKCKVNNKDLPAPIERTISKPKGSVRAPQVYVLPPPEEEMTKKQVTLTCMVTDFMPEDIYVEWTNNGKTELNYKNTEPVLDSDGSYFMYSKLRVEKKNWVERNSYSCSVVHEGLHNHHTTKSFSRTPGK

T2: Full-length human TIGIT on CHO-K1 cells (CHO-K1 human TIGIT) (human, UniProt Q495A1 22-244)
T2 construct: NCBI XP_024309156.1; the entry includes the signal peptide (limits not recoverable); The strain (high, medium, low) is named under assay; also called high expression strain 1D2; medium expression strain 2D10
T2 sequence: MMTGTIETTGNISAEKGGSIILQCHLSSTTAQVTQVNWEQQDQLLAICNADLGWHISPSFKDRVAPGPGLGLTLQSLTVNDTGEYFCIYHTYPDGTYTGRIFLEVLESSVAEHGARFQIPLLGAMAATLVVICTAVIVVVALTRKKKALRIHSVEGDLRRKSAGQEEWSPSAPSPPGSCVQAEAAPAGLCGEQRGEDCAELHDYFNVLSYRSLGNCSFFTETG

T3: Fusion protein of extracellular domain of human TIGIT and His-tag (human TIGIT ECD-his) (human)
T3 chain: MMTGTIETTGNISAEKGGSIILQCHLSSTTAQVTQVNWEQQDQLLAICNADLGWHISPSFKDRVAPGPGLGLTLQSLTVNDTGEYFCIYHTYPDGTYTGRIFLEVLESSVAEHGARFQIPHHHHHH

B1: TIGIT-002-H4L3 (antibody, V domains shown)
VH: EVQLQESGPGLVKPSETLSLTCAVSGYSITSDSWNWIRQPPGKKLEYIGYISYSGNTYYNPSLKSRVTISRDTSKNQFSLKLSSVTAADTAVYYCARLDFSNYGGAVDYWGQGTTVTVSS
VL: DIVMTQSPDSLAVSLGERATINCKASQNVRTAVAWYQQKPGQSPKLMIYSASYRYTGVPDRFSGSGSGTDFTLTISSLQAEDVAVYYCQQYYTTPWTFGGGTKVEIK
notes: Humanized anti-TIGIT antibody
B2: TIGIT-005-H2L1d (antibody, V domains shown)
VH: EVQLVQSGAEVKKPGASVKVSCKASGYAFTNYLIEWVRQAPGQRLEWMGVINPGSGGTNYKEKFKGRVTITADKSSSTAYMELSSLRSEDTAVYYCARGEYFFFDYWGQGTTVTVSS
VL: B1 VL with N28H, R30S, T31N, Q38H, M47L, Y91H, T93N, W96H
notes: Humanized anti-TIGIT antibody with NG-site mutation in VL
B3: TIGIT-006-H5L3 (antibody, V domains shown)
VH: B1 VH with I29M, S33Y, N56R, L98G, F100Y, V107M, D108Y, Y109D
VL: DIVMTQSPDSLAVSLGERATINCRASQGVSTTIAWYQQKPGQSPKLLIYSASYRYTGVPRFSGSGSGTDFTLTISSLQAEDVAVYYCQQYYSSPFTFGGGTKVEIK
notes: Humanized anti-TIGIT antibody
B4: TIGIT-070-H1L1 (antibody, V domains shown)
VH: EVQLVQSGAEVKKPGASVKVSCKASGYTFTNYYMHWVRQAPGQRLEWMGRIDPDSGGSKYNEKFKSRVTITVDKSASTAYMELSSLRSEDTAVYYCAREGHYGFYSDYWGQGTTVTVSS
VL: DIQMTQSPSSLSASVGDRVTITCRVSENIYSYLAWYQQKPGKSPKLLIYNAKTLAEGVPSRFSGSGSGTDFTLTISSLQPEDFATYYCQHHYGNPLTFGPGTKVDIK
notes: Humanized anti-TIGIT antibody

Molecular target: T1, Fusion protein of extracellular domain …
Assay: ELISA, human TIGIT ECD-mFc
Outline: (§1)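 Plates blocked with 5% skim milk-PBS at 37° C for 2-4 h. Test antibodies applied as a 12-point 3-fold series from 13 nM for 1.5-2 h at 37° C. Read-out: HRP secondary (1:5000, 1 h, 37° C), TMB colour for 7-10 min at room temperature, acid stop, absorbance at OD450 nm.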

Compared with B1, B2 is 2.1-fold higher in EC50: 0.0138 nM for the first, 0.0291 nM for the second.

Compared with B3, B4 is 1.6-fold higher in EC50: 0.0092 nM for the first, 0.0149 nM for the second. The first is the more potent here.

The binders below were run against T4, Full-length cynomolgus monkey TIGIT on CHO-K1 cells (CHO-K1 cynomolgus monkey TIGIT) (cynomolgus monkey) (assay: cell binding, CHO-K1 cynomolgus monkey TIGIT).
T4 construct: NCBI XP_015300911.1
Outline: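 Binding was measured by flow cytometry after a 60-minute, 4° C incubation of the antibodies with 2×10⁵ CHO-K1 cells displaying full-length human or cynomolgus monkey TIGIT. Antibody titration: 12 points, threefold serial dilution from 80 nM, in 1% BSA-PBS.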

T4 sequence (chain, as listed by the source limits assumed): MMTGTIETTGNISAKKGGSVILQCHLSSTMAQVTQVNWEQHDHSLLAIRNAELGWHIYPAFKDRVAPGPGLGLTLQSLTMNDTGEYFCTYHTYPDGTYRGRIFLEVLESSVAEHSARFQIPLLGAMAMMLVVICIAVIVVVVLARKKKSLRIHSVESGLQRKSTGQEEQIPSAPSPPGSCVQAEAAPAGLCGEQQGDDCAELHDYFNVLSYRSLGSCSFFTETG

B1 and B2 are within 1.5-fold of each other in EC50: 0.0473 nM for the first, 0.0566 nM for the second.

B3 and B4 are within 1.5-fold of each other in EC50: 0.0578 nM for the first, 0.0596 nM for the second.

Each binder was assayed against T2, Full-length human TIGIT on CHO-K1 cells … (assay: FACS; CHO-K1 human TIGIT medium expression strain).
Outline: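 The EC50 was derived from binding curves obtained by flow cytometry on CHO-K1 cells expressing full-length TIGIT of human or cynomolgus monkey origin. Cells (2×10⁵/50 μL, 1% BSA-PBS) were mixed 1:1 with a 12-point, 3-fold antibody dilution series that began at 80 nM before mixing, then incubated for 60 min at 4° C.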

B1 and B2 are within 1.5-fold of each other in EC50: 0.228 nM for the first, 0.285 nM for the second.

B3 and B4 are within 1.5-fold of each other in EC50: 0.396 nM for the first, 0.45 nM for the second.

Each binder was assayed against T5, Fusion protein of extracellular domain of cynomolgus monkey TIGIT and mouse IgG2a Fc fragment (cynomolgus … (cynomolgus monkey)) (assay: ELISA, cynomolgus monkey TIGIT ECD-mFc).
T5 construct: The entry includes the signal peptide (limits not recoverable) and the mouse IgG2a Fc
Outline: as §1

T5 sequence (chain, as listed by the source limits assumed): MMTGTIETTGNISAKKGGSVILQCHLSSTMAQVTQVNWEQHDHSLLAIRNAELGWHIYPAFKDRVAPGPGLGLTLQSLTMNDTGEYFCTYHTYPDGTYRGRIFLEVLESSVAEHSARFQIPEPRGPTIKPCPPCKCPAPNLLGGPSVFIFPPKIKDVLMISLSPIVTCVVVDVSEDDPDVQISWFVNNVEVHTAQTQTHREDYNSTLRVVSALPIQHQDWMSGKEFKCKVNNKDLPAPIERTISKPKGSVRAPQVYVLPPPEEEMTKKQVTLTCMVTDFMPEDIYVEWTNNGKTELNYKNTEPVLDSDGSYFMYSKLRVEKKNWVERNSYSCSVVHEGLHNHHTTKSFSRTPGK

Compared with B1, B2 is 2.1-fold higher in EC50: 0.0189 nM for the first, 0.0403 nM for the second. The first is the more potent here.

B3 and B4 are within 1.5-fold of each other in EC50: 0.0132 nM for the first, 0.0123 nM for the second.

Molecular target: T3, Fusion protein of extracellular domain …
Assay: BIAcore

Going from B1 to B2, the Kd rises from 0.0531 nM to 0.0896 nM (1.7-fold). The first binds more tightly here.

B3 and B4 are within 1.5-fold of each other in Kd: 0.0639 nM for the first, 0.0583 nM for the second.

B1 and B2 are within 1.5-fold of each other in koff: 0.0003 s⁻¹ for the first, 0.000361 s⁻¹ for the second.

B3 and B4 are within 1.5-fold of each other in koff: 0.00016 s⁻¹ for the first, 0.000116 s⁻¹ for the second.

B1 and B2 are within 1.5-fold of each other in kon: 5.65e+06 M⁻¹ s⁻¹ for the first, 4.03e+06 M⁻¹ s⁻¹ for the second.

B3 and B4 are within 1.5-fold of each other in kon: 2.51e+06 M⁻¹ s⁻¹ for the first, 1.98e+06 M⁻¹ s⁻¹ for the second.
